Results published in the supplement of paper PMC6755084.

The sequences below were run on F1*sub RNA substrate (template-directed ligation) (assay: fraction ligated after 30 min (ligated reads / total reads); higher = more ligase activity; sequences stand for … in GAGACCGCAACTGAAAAGTTGT…AGTTCTGCACGTAGAAGCAAAAGGC). Conditions: 42 °C.
Outline: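 Oligo-pool templates of ligase ribozyme variants were PCR-amplified, T7-transcribed and gel-purified. Ligated and unligated bands were gel-separated, reverse transcribed with barcoded primers, and MiSeq-sequenced; core bases were filtered at quality ≥20. Fraction ligated per variant was ligated reads over total reads.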

Sequence	fraction ligated
TATATTGTCGTAAGACATTTGGATGGGTTGA [3d769]	0.632
TATATTGTCGTAAGACCTTTGGATGGGTTGA [3d768]	0.468
TATATTGTCGTAAGCACTTTGGATGGGTTGA [3d766]	0.411
TATATTGTCGTAGACACTTTGGATGGGTTGA [3d764]	0.499
TATATTGTCTAAGACACTTTGGATGGGTTGA [3d762]	0.27
TATATTGTGTAAGACACTTTGGATGGGTTGA [3d761]	0.778
TATATTTCGTAAGACACTTTGGATGGGTTGA [3d759]	0.245
TATCACGCGTAAGACACTTTGGATGGGTTGA [3d1294]	0.814
TATCACGTCGAAGACACTTTGGATGGGTTGA [3d1297]	0.781
TATCACGTCGTAAACACTTTGGATGGGTTGA [3d1299]	0.787
TATCACGTCGTAAGAACTTTGGATGGGTTGA [3d1301]	0.825
TATCACGTCGTAAGACACTTGGATGGGTTGA [3d1304]	0.81
TATCACGTCGTAAGACACTTTGATGGGTTGA [3d1305]	0.777
TATCACGTCGTAAGACACTTTGGAGGGTTGA [3d1307]	0.104
TATCACGTCGTAAGACACTTTGGATGGGTTA [3d1309]	0.734
TATCACGTCGTAAGACACTTTGGATGGGTTG [3d1310]	0.782
TATCACGTCGTAAGACACTTTGGATGGGTTGA [2d128]	0.791
TATCACGTCGTAAGACACTTTGGATGGTTGA [3d1308]	0.361
TATCACGTCGTAAGACACTTTGGTGGGTTGA [3d1306]	0.721
TATCACGTCGTAAGACATTTGGATGGGTTGA [3d1303]	0.807
TATCACGTCGTAAGACCTTTGGATGGGTTGA [3d1302]	0.786
TATCACGTCGTAAGCACTTTGGATGGGTTGA [3d1300]	0.768
TATCACGTCGTAGACACTTTGGATGGGTTGA [3d1298]	0.801

Sequence	fraction ligated
TATCACGTCTAAGACACTTTGGATGGGTTGA [3d1296]	0.772
TATCACGTGTAAGACACTTTGGATGGGTTGA [3d1295]	0.829
TATCACTCGTAAGACACTTTGGATGGGTTGA [3d1293]	0.783
TATCACTGCGAAGACACTTTGGATGGGTTGA [3d1329]	0.831
TATCACTGCGTAAACACTTTGGATGGGTTGA [3d1331]	0.838
TATCACTGCGTAAGAACTTTGGATGGGTTGA [3d1333]	0.842
TATCACTGCGTAAGACACTTGGATGGGTTGA [3d1336]	0.793
TATCACTGCGTAAGACACTTTGATGGGTTGA [3d1337]	0.763
TATCACTGCGTAAGACACTTTGGAGGGTTGA [3d1339]	0.0829
TATCACTGCGTAAGACACTTTGGATGGGTTA [3d1341]	0.803
TATCACTGCGTAAGACACTTTGGATGGGTTG [3d1342]	0.834
TATCACTGCGTAAGACACTTTGGATGGGTTGA [2d130]	0.851
TATCACTGCGTAAGACACTTTGGATGGTTGA [3d1340]	0.15
TATCACTGCGTAAGACACTTTGGTGGGTTGA [3d1338]	0.119
TATCACTGCGTAAGACATTTGGATGGGTTGA [3d1335]	0.854
TATCACTGCGTAAGACCTTTGGATGGGTTGA [3d1334]	0.857
TATCACTGCGTAAGCACTTTGGATGGGTTGA [3d1332]	0.826
TATCACTGCGTAAGCCTTTGGATGGGTTGA [s2]	0.814
TATCACTGCGTAGACACTTTGGATGGGTTGA [3d1330]	0.862
TATCACTGCTAAGACACTTTGGATGGGTTGA [3d1328]	0.81
TATCACTGGTAAGACACTTTGGATGGGTTGA [3d1327]	0.828
TATCACTGTCAAGACACTTTGGATGGGTTGA [3d1358]	0.817
TATCACTGTCGAAACACTTTGGATGGGTTGA [3d1373]	0.83
